{"source": "patent CN114276439A", "about": "(YUDOLONG SUZHOU MEDICAL SCIENCE AND TECH LIMITED COMPANY, dated 2022)", "binders": {"B1": {"name": "单克隆抗体50A11 (antibody, V domains shown)", "VH": "DVQLQESGPGLVKPSQSLSLTCTVTGYSITSYHAWNWIRQFPGNKLEWMAYINYSGKTSYNPSLKSRISITRDTSKNQFLLQLNSVTTEDTATYYCARVDWEGNYFDYWGQGTTVTVSS", "VL": "DVLMTQTPLSLPVSLGDQASISCRSSQSILHSNGNTYLQWYLQKPGQSPNLLIYKVSNRFSGVPDRFSGSGSGTDFTLKISRVEAEDLGVYYCFQGSHVPPTFGGGTKLEIKR", "notes": "constant regions are not"}}, "key": {"[1]": {"target": "T1, HPV11 VLP (HPV11, UniProt P04012 1-501)", "T1 sequence": "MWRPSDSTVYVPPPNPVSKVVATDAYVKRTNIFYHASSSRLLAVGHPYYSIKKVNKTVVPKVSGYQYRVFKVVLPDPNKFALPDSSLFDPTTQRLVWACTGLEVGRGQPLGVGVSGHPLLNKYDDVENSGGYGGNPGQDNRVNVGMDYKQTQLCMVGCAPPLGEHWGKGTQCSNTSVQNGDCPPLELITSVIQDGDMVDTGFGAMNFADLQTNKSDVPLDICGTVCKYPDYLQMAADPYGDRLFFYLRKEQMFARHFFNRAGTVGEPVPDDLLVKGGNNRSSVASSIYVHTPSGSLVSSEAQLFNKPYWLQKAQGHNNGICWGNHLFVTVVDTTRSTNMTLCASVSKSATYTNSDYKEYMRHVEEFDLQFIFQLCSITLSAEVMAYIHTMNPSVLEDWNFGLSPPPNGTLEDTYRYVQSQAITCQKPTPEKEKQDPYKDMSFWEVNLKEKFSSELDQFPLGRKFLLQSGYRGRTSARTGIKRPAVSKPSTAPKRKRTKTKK", "assay": "indirect ELISA, VLP coated at 0.25 μg/ml"}, "[2]": {"target": "T2, HPV16假病毒 (HPV16, UniProt P03101 1-505)", "T2 sequence": "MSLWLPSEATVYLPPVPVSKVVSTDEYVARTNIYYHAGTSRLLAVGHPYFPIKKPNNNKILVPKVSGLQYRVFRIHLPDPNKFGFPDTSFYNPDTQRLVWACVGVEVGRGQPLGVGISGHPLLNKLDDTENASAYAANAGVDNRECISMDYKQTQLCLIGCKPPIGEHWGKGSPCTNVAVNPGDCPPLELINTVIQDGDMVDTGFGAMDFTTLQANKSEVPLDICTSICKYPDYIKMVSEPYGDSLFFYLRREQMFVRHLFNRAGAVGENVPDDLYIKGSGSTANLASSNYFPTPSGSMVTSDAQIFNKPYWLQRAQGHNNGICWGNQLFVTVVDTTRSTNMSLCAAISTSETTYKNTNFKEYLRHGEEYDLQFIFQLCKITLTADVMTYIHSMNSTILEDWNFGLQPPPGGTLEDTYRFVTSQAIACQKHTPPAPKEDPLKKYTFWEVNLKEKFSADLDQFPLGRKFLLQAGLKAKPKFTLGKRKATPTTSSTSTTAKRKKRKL", "assay": "cell-based or functional assay"}}, "data": [{"binder": "B1", "values": [{"measurement": "binding result", "setting": "[1]", "value": "no binding"}, {"measurement": "HPV16假病毒中和反应IC50", "setting": "[2]", "value": 1.35, "unit": "ng/mL"}]}]}
